The data set in a line: background-corrected fluorescence of 3'-dye-labeled ssDNA relative to brightest sequence (3'-GCGCG) (fraction); higher = brighter dye fluorescence (less quenching). On the procedure: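 Single-stranded DNA is synthesized in situ on glass microarrays by 5'->3' photolithographic synthesis, with a Cy3 or Cy5 phosphoramidite coupled at the 3' end next to all 1024 permuted pentamers P1-P5. The construct is 5'-T5-(ACGT minus P5..P1 trinucleotides)-T15-P5P4P3P2P1-dye-3'; the dye is a 3' terminal modification, not part of the sequence. Arrays were scanned at 532 nm (Cy3) or 635 nm (Cy5), background from unlabeled oligos was subtracted, and values are averaged over 10 replicate features per array and at least 3 independent syntheses.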

± gives the standard error.

For the sequence “TTTTTTCATCATGATGATGCTTTTTTTTTTTTTTTGGCCA [ACCGG]”, the background-corrected fluorescence runs as follows: (dye: Cy3 (3' terminal)) 0.518 ± 0.025; (dye: Cy5 (3' terminal)) 0.425 ± 0.025.
On to “TTTTTTCATGCTGCGCAGCATTTTTTTTTTTTTTTGAATT [TTAAG]”, for which the background-corrected fluorescence (dye: Cy3 (3' terminal)) is 0.5465 ± 0.0052 and the background-corrected fluorescence (dye: Cy5 (3' terminal)) was found to be 0.382 ± 0.03.
Consider “TTTTTTGAGCATGCTGCTGCTTTTTTTTTTTTTTTCTAAA [AAATC]”, for which the background-corrected fluorescence came out at 0.569 ± 0.008 (dye: Cy3 (3' terminal)) and 0.457 ± 0.021 (dye: Cy5 (3' terminal)).
With “TTTTTGCATCATCATGCTCATTTTTTTTTTTTTTTTGGAG [GAGGT]”, the background-corrected fluorescence runs as follows: (dye: Cy3 (3' terminal)) 0.589 ± 0.02; (dye: Cy5 (3' terminal)) 0.494 ± 0.035.
“TTTTTTGCTCATGATCATCATTTTTTTTTTTTTTTAGCGG [GGCGA]”: the background-corrected fluorescence worked out at 0.716 ± 0.013 (dye: Cy3 (3' terminal)) and 0.577 ± 0.042 (dye: Cy5 (3' terminal)).
Take “TTTTTTGAGCATCATGAGCATTTTTTTTTTTTTTTCTGCT [TCGTC]”: the background-corrected fluorescence (dye: Cy3 (3' terminal)) stood at 0.492 ± 0.021 and the background-corrected fluorescence (dye: Cy5 (3' terminal)) is 0.39 ± 0.049.
For the sequence “TTTTTGCATGATGCTCATCATTTTTTTTTTTTTTTTCAGG [GGACT]”, the background-corrected fluorescence stood at 0.606 ± 0.034 (dye: Cy3 (3' terminal)) and 0.486 ± 0.034 (dye: Cy5 (3' terminal)).
As to “TTTTTGCATGCTGCTCATGATTTTTTTTTTTTTTTTAAGC [CGAAT]”, the background-corrected fluorescence by setting is: (dye: Cy3 (3' terminal)) 0.524 ± 0.023; (dye: Cy5 (3' terminal)) 0.417 ± 0.029.
Turning to “TTTTTGCATCAGCATGATGATTTTTTTTTTTTTTTTGTCC [CCTGT]”, the background-corrected fluorescence reads like this: (dye: Cy3 (3' terminal)) 0.401 ± 0.014; (dye: Cy5 (3' terminal)) 0.289 ± 0.018.
In the same order, the values of “TTTTTTGCGCATCAGCATGATTTTTTTTTTTTTTTATGTC [CTGTA]” are 0.454 ± 0.021 and 0.351 ± 0.046.
For “TTTTTTGAGCATGAGCATGCTTTTTTTTTTTTTTTCTCTA [ATCTC]”, in that order: 0.483 ± 0.0051 and 0.36 ± 0.023.
In the same order, the values of “TTTTTTCATCATGCGCAGCATTTTTTTTTTTTTTTGGATT [TTAGG]” are 0.584 ± 0.031 and 0.41 ± 0.061.
On to “TTTTTTCATGATGCTGAGCATTTTTTTTTTTTTTTGCACT [TCACG]”, for which the background-corrected fluorescence was found to be 0.482 ± 0.048 (dye: Cy3 (3' terminal)) and 0.339 ± 0.024 (dye: Cy5 (3' terminal)).
The sequence “TTTTTGCATGATGCTGAGCATTTTTTTTTTTTTTTTCACT” displayed a background-corrected fluorescence (dye: Cy3 (3' terminal)) of 0.447 ± 0.036 and a background-corrected fluorescence (dye: Cy5 (3' terminal)) of 0.334 ± 0.02.
Regarding “TTTTTTCATGATCATGCTGCTTTTTTTTTTTTTTTGCGAA [AAGCG]”, the background-corrected fluorescence runs as follows: (dye: Cy3 (3' terminal)) 0.666 ± 0.028; (dye: Cy5 (3' terminal)) 0.525 ± 0.028.
Turning to “TTTTTTGATGAGCATCAGCATTTTTTTTTTTTTTTCCTGT [TGTCC]”, the background-corrected fluorescence reads like this: (dye: Cy3 (3' terminal)) 0.584 ± 0.0059; (dye: Cy5 (3' terminal)) 0.459 ± 0.038.
In the case of “TTTTTTGAGCATGATGATGCTTTTTTTTTTTTTTTCTCCA [ACCTC]”, the background-corrected fluorescence runs as follows: (dye: Cy3 (3' terminal)) 0.441 ± 0.019; (dye: Cy5 (3' terminal)) 0.356 ± 0.055.
With “TTTTTTCAGCATCATCATGCTTTTTTTTTTTTTTTGTGGA [AGGTG]”, the background-corrected fluorescence stood at 0.702 ± 0.022 (dye: Cy3 (3' terminal)) and 0.606 ± 0.037 (dye: Cy5 (3' terminal)).
Turning to “TTTTTGCAGCAGCATGAGCATTTTTTTTTTTTTTTTTTCT [TCTTT]”, the background-corrected fluorescence (dye: Cy3 (3' terminal)) was 0.463 ± 0.024 and the background-corrected fluorescence (dye: Cy5 (3' terminal)) turned out to be 0.321 ± 0.019.
Regarding “TTTTTGCATCAGCATGCTGCTTTTTTTTTTTTTTTTGTAA [AATGT]”, the background-corrected fluorescence runs as follows: (dye: Cy3 (3' terminal)) 0.596 ± 0.019; (dye: Cy5 (3' terminal)) 0.478 ± 0.03.
For “TTTTTGCATGATGCGCAGCATTTTTTTTTTTTTTTTCATT [TTACT]”, in that order: 0.485 ± 0.03 and 0.359 ± 0.028.
For “TTTTTTCAGCATCATGCTCATTTTTTTTTTTTTTTGTGAG [GAGTG]”, in that order: 0.619 ± 0.028 and 0.472 ± 0.057.
As to “TTTTTTGCTGCTGATCAGCATTTTTTTTTTTTTTTAACGT [TGCAA]”, the background-corrected fluorescence came out at 0.606 ± 0.023 (dye: Cy3 (3' terminal)) and 0.45 ± 0.025 (dye: Cy5 (3' terminal)).
As to “TTTTTTCATGAGCATCATGATTTTTTTTTTTTTTTGCTGC [CGTCG]”, the background-corrected fluorescence was 0.509 ± 0.031 (dye: Cy3 (3' terminal)) and 0.403 ± 0.029 (dye: Cy5 (3' terminal)).
Take “TTTTTTGAGCAGCATGATGATTTTTTTTTTTTTTTCTTCC [CCTTC]”: the background-corrected fluorescence by setting is: (dye: Cy3 (3' terminal)) 0.345 ± 0.016; (dye: Cy5 (3' terminal)) 0.229 ± 0.015.
For “TTTTTTCATGCTGCTGCTCATTTTTTTTTTTTTTTGAAAG”, in that order: 0.574 ± 0.028 and 0.431 ± 0.056.
In the same order, the values of “TTTTTTCATGCTGATGATGATTTTTTTTTTTTTTTGACCC [CCCAG]” are 0.387 ± 0.0053 and 0.282 ± 0.022.
Turning to “TTTTTTCAGCATCATGATGATTTTTTTTTTTTTTTGTGCC [CCGTG]”, the background-corrected fluorescence reads like this: (dye: Cy3 (3' terminal)) 0.438 ± 0.022; (dye: Cy5 (3' terminal)) 0.332 ± 0.028.
As to “TTTTTGCATGATCATGCTGCTTTTTTTTTTTTTTTTCGAA [AAGCT]”, the background-corrected fluorescence (dye: Cy3 (3' terminal)) came to 0.632 ± 0.0073 and the background-corrected fluorescence (dye: Cy5 (3' terminal)) stood at 0.524 ± 0.043.
For the sequence “TTTTTTGCTCATCATGCTCATTTTTTTTTTTTTTTAGGAG [GAGGA]”, the background-corrected fluorescence is, setting by setting: (dye: Cy3 (3' terminal)) 0.597 ± 0.023; (dye: Cy5 (3' terminal)) 0.507 ± 0.034.
Consider “TTTTTTCATGCTCATGCTGCTTTTTTTTTTTTTTTGAGAA [AAGAG]”, for which the background-corrected fluorescence reads like this: (dye: Cy3 (3' terminal)) 0.645 ± 0.032; (dye: Cy5 (3' terminal)) 0.513 ± 0.026.
Consider “TTTTTTGAGCATGCGCATGCTTTTTTTTTTTTTTTCTATA [ATATC]”, for which the background-corrected fluorescence was determined as 0.527 ± 0.018 (dye: Cy3 (3' terminal)) and 0.411 ± 0.023 (dye: Cy5 (3' terminal)).
On to “TTTTTTGATCATGATCATGATTTTTTTTTTTTTTTCGCGC”, for which the background-corrected fluorescence (dye: Cy3 (3' terminal)) turned out to be 0.759 ± 0.032 and the background-corrected fluorescence (dye: Cy5 (3' terminal)) was found to be 0.66 ± 0.052.
Consider “TTTTTTCATCATCATGCTGCTTTTTTTTTTTTTTTGGGAA [AAGGG]”, for which the background-corrected fluorescence is 0.649 ± 0.032 (dye: Cy3 (3' terminal)) and 0.596 ± 0.068 (dye: Cy5 (3' terminal)).
With “TTTTTTGATGATGCTGCTGCTTTTTTTTTTTTTTTCCAAA [AAACC]”, the background-corrected fluorescence by setting is: (dye: Cy3 (3' terminal)) 0.559 ± 0.025; (dye: Cy5 (3' terminal)) 0.445 ± 0.051.
On to “TTTTTGCATGATCATGATGCTTTTTTTTTTTTTTTTCGCA [ACGCT]”, for which the background-corrected fluorescence (dye: Cy3 (3' terminal)) is 0.569 ± 0.035 and the background-corrected fluorescence (dye: Cy5 (3' terminal)) came out at 0.434 ± 0.029.
Take “TTTTTGCAGCATCAGCATCATTTTTTTTTTTTTTTTTGTG [GTGTT]”: the background-corrected fluorescence is, setting by setting: (dye: Cy3 (3' terminal)) 0.524 ± 0.031; (dye: Cy5 (3' terminal)) 0.397 ± 0.019.
In the same order, the values of “TTTTTTGCTCAGCATGCTGCTTTTTTTTTTTTTTTAGTAA [AATGA]” are 0.563 ± 0.016 and 0.493 ± 0.037.
Regarding “TTTTTTGCTGCTGATGCTCATTTTTTTTTTTTTTTAACAG [GACAA]”, the background-corrected fluorescence stood at 0.576 ± 0.02 (dye: Cy3 (3' terminal)) and 0.421 ± 0.019 (dye: Cy5 (3' terminal)).
In the case of “TTTTTTCATGAGCATGATGCTTTTTTTTTTTTTTTGCTCA [ACTCG]”, the background-corrected fluorescence by setting is: (dye: Cy3 (3' terminal)) 0.485 ± 0.016; (dye: Cy5 (3' terminal)) 0.386 ± 0.032.
For the sequence “TTTTTTGCTGATGATGCTGATTTTTTTTTTTTTTTACCAC [CACCA]”, the background-corrected fluorescence stood at 0.405 ± 0.01 (dye: Cy3 (3' terminal)) and 0.286 ± 0.018 (dye: Cy5 (3' terminal)).
Take “TTTTTGCATCATCATGATGCTTTTTTTTTTTTTTTTGGCA [ACGGT]”: the background-corrected fluorescence was 0.562 ± 0.015 (dye: Cy3 (3' terminal)) and 0.472 ± 0.032 (dye: Cy5 (3' terminal)).
As to “TTTTTTCAGCAGCAGCATCATTTTTTTTTTTTTTTGTTTG”, the background-corrected fluorescence amounted to 0.517 ± 0.028 (dye: Cy3 (3' terminal)) and 0.33 ± 0.029 (dye: Cy5 (3' terminal)).

For the origin of these results see the supplement of paper PMC9428881.
